B1: Polycystin-2 (Homo sapiens), Q13563 (parent)
chain: MVNSSRVQPQQPGDAKRPPAPRAPDPGRLMAGCAAVGASLAAPGGLCEQRGLEIEMQRIRQAAARDPPAGAAASPSPPLSSCSRQAWSRDNPGFEAEEEEEEVEGEEGGMVVEMDVEWRPGSRRSAASSAVSSVGARSRGLGGYHGAGHPSGRRRRREDQGPPCPSPVGGGDPLHRHLPLEGQPPRVAWAERLVRGLRGLWGTRLMEESSTNREKYLKSVLRELVTYLLFLIVLCILTYGMMSSNVYYYTRMMSQLFLDTPVSKTEKTNFKTLSSMEDFWKFTEGSLLDGLYWKMQPSNQTEADNRSFIFYENLLLGVPRIRQLRVRNGSCSIPQDLRDEIKECYDVYSVSSEDRAPFGPRNGTAWIYTSEKDLNGSSHWGIIATYSGAGYYLDLSRTREETAAQVASLKKNVWLDRGTRATFIDFSVYNANINLFCVVRLLVEFPATGGVIPSWQFQPLKLIRYVTTFDFFLAACEIIFCFFIFYYVVEEILEIRIHKLHYFRSFWNCLDVVIVVLSVVAIGINIYRTSNVEVLLQFLEDQNTFPNFEHLAYWQIQFNNIAAVTVFFVWIKLFKFINFNRTMSQLSTTMSRCAKDLFGFAIMFFIIFLAYAQLAYLVFGTQVDDFSTFQECIFTQFRIILGDINFAEIEEANRVLGPIYFTTFVFFMFFILLNMFLAIINDTYSEVKSDLAQQKAEMELSDLIRKGYHKALVKLKLKKNTVDDISESLRQGGGKLNFDELRQDLKGKGHTDAEIEAIFTKYDQDGDQELTEHEHQQMRDDLEKEREDLDLDHSSLPRPMSSRSFPRSLDDSEEDDDEDSGHSSRRRGSISSGVSYEEFQVLVRRVDRMEHSIGSIVSKIDAVIVKLEIMERAKLKRREVLGRLLDGVAEDERLGRDSEIHREQMERLVREELERWESDDAASQISHGLGTPVGLNGQPRPRSSRPSSSQSTEGMEGAGGNGSSNVHV
partner: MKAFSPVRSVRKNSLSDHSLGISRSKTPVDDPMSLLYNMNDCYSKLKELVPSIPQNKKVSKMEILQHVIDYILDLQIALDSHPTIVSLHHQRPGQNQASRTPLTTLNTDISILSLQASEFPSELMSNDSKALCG

Variants of: B1
Conditions: with id2_human ID2, Q02363
With S812A the “effect of a mutation on the interaction” value was “disrupting interaction”.
